The values that follow come from paper doi:10.1101/2024.02.19.580982.

In assay [1] the target is α-Synuclein preformed fibrils (α-Syn PFF) (mouse) (UniProt O55042). Description: SPR. (Surface plasmon resonance follows binding to a sensor surface in real time, without labels.)
Assay [2] shares this target. Description: ELISA. For orientation: An ELISA detects its analyte on a solid surface through an enzyme-linked reagent.

Values joined by “and” are separate entries in the source; they are usually repeats but may differ in a detail not shown here. Identical values can stand only once.

Sequence of ΔLRR hNOD2-Fc (Q9HC29 whole entry, stated change not applied, the tested form may be a part): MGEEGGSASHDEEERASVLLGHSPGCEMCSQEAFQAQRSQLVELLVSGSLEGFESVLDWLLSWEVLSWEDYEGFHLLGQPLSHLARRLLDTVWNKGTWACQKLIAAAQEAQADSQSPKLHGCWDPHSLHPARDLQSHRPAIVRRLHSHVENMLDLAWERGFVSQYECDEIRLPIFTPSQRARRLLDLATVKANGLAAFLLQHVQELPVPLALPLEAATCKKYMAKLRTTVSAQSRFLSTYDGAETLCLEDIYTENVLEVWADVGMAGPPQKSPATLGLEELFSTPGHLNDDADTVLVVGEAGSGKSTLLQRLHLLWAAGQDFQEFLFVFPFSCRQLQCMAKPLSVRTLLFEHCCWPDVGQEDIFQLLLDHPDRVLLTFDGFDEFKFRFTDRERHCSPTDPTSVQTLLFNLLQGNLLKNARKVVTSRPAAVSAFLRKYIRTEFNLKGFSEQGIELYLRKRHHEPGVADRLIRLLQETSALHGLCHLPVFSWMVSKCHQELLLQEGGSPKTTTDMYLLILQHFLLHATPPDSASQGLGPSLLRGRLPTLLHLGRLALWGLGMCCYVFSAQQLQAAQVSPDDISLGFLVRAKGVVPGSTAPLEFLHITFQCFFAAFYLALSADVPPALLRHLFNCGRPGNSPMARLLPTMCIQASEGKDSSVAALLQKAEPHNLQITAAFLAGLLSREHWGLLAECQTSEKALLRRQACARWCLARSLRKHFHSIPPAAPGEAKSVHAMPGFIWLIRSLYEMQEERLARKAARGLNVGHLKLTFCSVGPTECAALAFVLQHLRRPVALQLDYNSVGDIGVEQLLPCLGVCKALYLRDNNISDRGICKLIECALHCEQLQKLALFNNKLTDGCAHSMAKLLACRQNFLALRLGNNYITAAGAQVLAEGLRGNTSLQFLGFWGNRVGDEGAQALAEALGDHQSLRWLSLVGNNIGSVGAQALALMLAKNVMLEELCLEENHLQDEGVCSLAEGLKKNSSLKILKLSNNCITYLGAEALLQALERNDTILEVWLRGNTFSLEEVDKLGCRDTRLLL

As usually defined, the Kd is the equilibrium constant for the complex coming apart. Read a low Kd as tighter binding. As to “FL hNOD2 with the Fc-tag removed by HRV 3C protease (from UniProt Q9HC29 1-1040) (natural protein)”, in assay [1], the Kd is 807 nM and 1190 nM. On to “human IgG1 Fc-tagged human NOD2 full-length (FL hNOD2-Fc) (from UniProt Q9HC29 1-1040) (Fc fusion)”, for which the Kd in assay [2] stood at 1200 nM. On the same count and under the same terms, as for “ΔLRR hNOD2-Fc (from UniProt Q9HC29 1-1040) (Fc fusion)”, the figure is 2810 nM.
